Experimental data as given in article PMC8350387, “Solution Structure of the dATP-Inactivated Class I Ribonucleotide Reductase From Leeuwenhoekiella blandensis by SAXS and Cryo-Electron Microscopy” (Frontiers in Molecular Biosciences, 2021).
Each block holds one molecule with its values, some of them ahead of it.

How the values were obtained:
[1] = molecular target: Leeuwenhoekiella blandensis class I ribonucleotide reductase radical-generating subunit NrdB (LbNrdB) (Leeuwenhoekiella blandensis); assay: SEC-SAXS; LbNrdA and LbNrdB mixed at 85 μM each with 1 mM dATP and 2 mM magnesium acetate, 5 min, on Superdex S200; SEC buffer 50 mM Tris-HCl pH 7.6, 300 mM NaCl, 2 mM DTT, 1 mM Mg acetate, 0.4 mM dATP, 5% glycerol
[2] = molecular target: Leeuwenhoekiella blandensis class I ribonucleotide reductase radical-generating subunit NrdB (LbNrdB) (Leeuwenhoekiella blandensis); assay: SEC-SAXS; LbNrdB alone, 350 μL of 11 mg/ml with 1 mM dATP loaded on Superdex S200; SEC buffer 50 mM Tris-HCl pH 7.6, 300 mM NaCl, 2 mM DTT, 1 mM Mg acetate, 0.4 mM dATP, 5% glycerol
[3] = molecular target: Leeuwenhoekiella blandensis class I ribonucleotide reductase radical-generating subunit NrdB (LbNrdB) (Leeuwenhoekiella blandensis); assay: cryo-EM structure; LbNrdAB complex formed with dATP, isolated on Superdex 200 with on-column 0.05% glutaraldehyde cross-linking in HEPES buffer; single particle reconstruction at 8.2 Å, no symmetry imposed
[4] = molecular target: the molecule itself; assay: SAXS; batch mode, LbNrdA 0.625-5 mg/ml in 50 mM Tris-HCl pH 7.6, 300 mM NaCl, 2 mM DTT, 5% glycerol, 2 mM magnesium acetate, 1 mM dATP; 10 °C

- stoichiometry N [1]: 4
- stoichiometry N [2]: 4
- stoichiometry N [3]: 4
Molecule: Leeuwenhoekiella blandensis class I ribonucleotide reductase radical-generating subunit NrdB (LbNrdB) (enzyme)

- stoichiometry N (LbNrdA per LbNrdB (α4β4)) [1]: 1
B1: Leeuwenhoekiella blandensis class I ribonucleotide reductase catalytic subunit NrdA (LbNrdA) (enzyme, UniProt A3XHF8 1-600, looked up)
chain: MRENTTKLENSTETNVQHTKDNDLLKARRDALQDATEKNTDEPSFDWLTEHSRSFLAAGYLSEGVSAEERIREIADRAEEILRMPGFSDKFYKYMGEGYFSLASPVWSNFGKKRGLPISCFGSHIDDDMGNILYTQSEVGMMSKLGGGTSGYFGKIRHRGAAVKNNGYASGAVHIMQLFDKMVDVVSQGSVRRGRFSPYLPISHPDIKEFLEIGTEGNSIQQLTHGVTVDSTWMQEMIDGDTDKREVWAKVLQRRGEMGYPYIFYTDNANNGKPDVYKDKGHDIYASNLCTEIMLPSSDEWSFVCVLSSINVLHYDKWKNTDAVETMVCFLDAVLTEFIDKLEEYRDSDNRDHRQTFMFMERAYNFAKSNRALGLGVLGWHSLLQSKRHAFDSQEAYDLNSEIFREIKQRSYKASEELAEKFGEPETLKGYGRRNATLNAIAPTTSSAFILGQVSQGIEPIWSNVYVKDIAKIKTTIKNPFLEELFEEKGMNTPEVWRSVRDNDGSVQHLEFLTEQEKDVFKTYAEIDQMAIIYQAANRQNHIDQGQSINLLVHPDMPIKEINKIHITAWKLGLKSLYYQHSMNAAQKFKQKKECVSCEA
notes: NrdA (α subunit, subclass NrdAi, lacks an ATP-cone) of Leeuwenhoekiella blandensis; the homology model covers residues 40-596 and lacks 43 terminal residues per monomer; Dimer (α2) with dATP by SAXS; also called α2 (dimer); source: purified as described previously (Rozman Grinberg et al., 2018a); not shown: His6, N-terminal, kept
- stoichiometry N [4]: 2
